Measured values reported in patent US5639728A, “Antineoplastic peptide” (priority 1993, dated 1997).

Legend:
[1] = Toxicity deaths (LD50) in Balb/c mice; assay type: in vivo, mouse; settings: i.v. twice per week, five times; female Balb/c mice
Description: (§1) The following experiments were performed in order to calculate a therapeutic index (ratio of toxicity and effectiveness). 2×10^5 Meth A mouse sarcoma cells were transplanted into the dorsal subcutis of 6-week-old female Balb/c mice in single groups comprising from 5 to 10 animals. Seven days after the tumor transplant, the tested substance was dissolved in physiological saline (9.9×10^7 units/ml, 5×10^7 units/mg), and this solution was administered intravenously to the mice twice per week; a total five times. In a control group, physiological saline alone was administered intravenously.
(§2) Based on the tumor growth restriction rates obtained at various concentrations, concentrations restricting tumor growth by 50% (50% effective dose; ED50 mg/kg) were calculated. In each administration group, when toxicity deaths were observed, a 50% lethal quantity (50% lethal dose; LD50 mg/kg) was calculated. The therapeutic index was taken as the ratio of the 50% lethal quantity (LD50) to the 50% tumor growth restriction quantity (ED50)
(§3) Control Δ10LT^4) was the TNF disclosed in JJP, A, S60-185799.

[2] = Effect on systolic blood pressure in SD rats; assay type: in vivo, rat; settings: 1 mg/kg i.v., t-test *P < 0.05 for PΔ10LT, FΔ10LT, Δ10LT, LT, TNFα, -- for FPΔ10LT, MLT
Excerpt: Using 11-week-old Crj:CD(SD) rats 350 to 400 g in weight (Nihon Charles River), effects of each test substance on blood pressure were investigated as follows. The aforementioned rats were given ether anesthesia, hair in the right femoral region was cue with clippers, and the skin was cut open using a small scissors. Xylocaine jelly (local anesthetic) was then applied to the cut skin, and each blood vessel was carefully peeled using a tweezers. After the peeling, an SP10 cannulation tube equipped with a three-way cock (Natsume) was attached to arteries and veins, and 200 unit/ml heparin solution was injected therefrom.
After insertion, the skin was sutured using an automatic stitcher, and the rats were secured to a stationary platform (Natsume, Boormann cage). After securing, air in the three-way cock of the arterial cannula was completely removed, and a polygraph (Nihon Denki Sanei, Model 363 System) pressure transducer was connected. After connection, the polygraph was set up, blood pressure measurement was begun, and when blood pressure and heart rate had stabilized, each tested substance used in the foregoing antitumor effect testing was administered by intravenous injection, and 24 hour systolic blood pressure was measured after administration. […]

[3] = tested on: Meth A mouse sarcoma cells; experiment: Antitumor effect on Meth A mouse sarcoma transplanted into Balb/c mice; assay type: in vivo; settings: for Inhibition rate (tumor growth restriction rate): day 21
Description: as §1
When 21 days following the transplant had passed, surviving animals were sacrificed, and tumors were excised. The excised tumors were weighed, and a mean tumor weight was calculated in each group. The mean tumor weight in each administration group was compared with the mean tumor weight in the control group, and tumor growth restriction rates were determined.
as §2, §3

[4] = previously known; cited from earlier work

Row | Molecule | LD50 [1] [mg/kg] | Decrease of blood pressure (% of the control value) 24 hours after administration [2] [%] | Inhibition rate (tumor growth restriction rate) ([3]; 0.23 mg/kg i.v. twice per week, five times) [%] | Inhibition rate (tumor growth restriction rate) ([3]; 0.94 mg/kg i.v. twice per week, five times) [%] | ED50 (50% tumor growth restriction) ([3]; i.v. twice per week, five times, Meth A, female Balb/c mice) [mg/kg] | Treatment coefficient (LD50/ED50) ([3]; therapeutic index, LD50/ED50) | hypotensive effect, in words [4]
1 | TNFα | 1.08 | -9.6 | 43.3 | 86.5 | 0.31 | 3.5 | hypotension is a side effect
2 | LT: native-form human lymphotoxin (LT) (protein, UniProt P01374 35-205, looked up) Lymphotoxin-alpha: LPGVGLTPSAAQTARQHPKMHLAHSTLKPAAHLIGDPSKQNSLLWRANTDRAFLQDGFSLSNNSLLVPTSGIYFVYSQVVFSGKAYSPKATSSPLYLAHEVQLFSSQYPFHVPLLSSQKMVYPGLQEPWLHSMYHGAAFQLTQGDQLSTHTDGIPHLVLSPSTVFFGAFAL | – | -10.1 | – | – | – | – | also has a hypotensive effect
